Drawing on patent US20230236179A1, this text covers average AEB and average AMB for two substances.

In experiment [1] the target is human Brachyury protein standard (Abcam ab114235) (human) (UniProt O15178). Kind of experiment: conventional Simoa sandwich (capture beads + detector m8), 300 pM SβG/15 min; Brachyury at 1500 fM.
Experiment [2] has the same target. Description: conventional Simoa sandwich (capture beads + detector m8), 300 pM SβG/15 min; Brachyury at 0.048 fM.
The target is the same in experiment [3]. Kind of experiment: conventional Simoa sandwich (capture beads + detector m8), 150 pM SβG/5 min; Brachyury at 150 fM.
The target is the same in experiment [4]. Description: conventional Simoa sandwich (capture beads + detector m8), 150 pM SβG/5 min; Brachyury at 6 fM.
Experiment [5] shares this target. Kind of experiment: conventional Simoa sandwich (capture beads + detector m8), 300 pM SβG/15 min; Brachyury at 0.24 fM.
Experiment [6] has the same target. Description: conventional Simoa sandwich (capture beads + detector m8), 300 pM SβG/15 min; Brachyury at 150 fM.
The target is the same in experiment [7]. Kind of experiment: dSimoa sandwich (capture beads + detector m8), 300 pM streptavidin-DNA/15 min; Brachyury at 6 fM.
Experiment [8] has the same target. Description: conventional Simoa sandwich (capture beads + detector m8), 150 pM SβG/5 min; Brachyury at 1.2 fM.
The target is the same in experiment [9]. Kind of experiment: dSimoa sandwich (capture beads + detector m8), 300 pM streptavidin-DNA/15 min; Brachyury at 0.24 fM.
Experiment [10] shares this target. Description: dSimoa sandwich (capture beads + detector m8), 300 pM streptavidin-DNA/15 min; Brachyury at 30 fM.
Experiment [11] shares this target. Kind of experiment: conventional Simoa sandwich (capture beads + detector m8), 150 pM SβG/5 min; Brachyury at 0.24 fM.
Experiment [12] shares this target. Kind of experiment: conventional Simoa sandwich (capture beads + detector m8), 300 pM SβG/15 min; Brachyury at 6 fM.
Experiment [13] has the same target. Description: conventional Simoa sandwich (capture beads + detector m8), 150 pM SβG/5 min; Brachyury at 1500 fM.
For experiment [14] the target is unchanged. Kind of experiment: dSimoa sandwich (capture beads + detector m8), 300 pM streptavidin-DNA/15 min; Brachyury at 150 fM.
Experiment [15] has the same target. Description: conventional Simoa sandwich (capture beads + detector m8), 300 pM SβG/15 min; Brachyury at 30 fM.
The target is the same in experiment [16]. Description: dSimoa sandwich (capture beads + detector m8), 300 pM streptavidin-DNA/15 min; Brachyury at 0.048 fM.
For experiment [17] the target is unchanged. Kind of experiment: conventional Simoa sandwich (capture beads + detector m8), 150 pM SβG/5 min; Brachyury at 30 fM.
The target is the same in experiment [18]. Description: conventional Simoa sandwich (capture beads + detector m8), 150 pM SβG/5 min; Brachyury at 0.048 fM.
For experiment [19] the target is unchanged. Description: dSimoa sandwich (capture beads + detector m8), 300 pM streptavidin-DNA/15 min; Brachyury at 1.2 fM.
Experiment [20] has the same target. Kind of experiment: conventional Simoa sandwich (capture beads + detector m8), 300 pM SβG/15 min; Brachyury at 1.2 fM.
Experiment [21] addresses human interleukin-10 (IL-10) protein standard (printed as Biolegend 501501) (human) (UniProt P22301). Kind of experiment: conventional Simoa sandwich (capture beads + detector m5), 150 pM SβG/5 min; IL-10 at 15 fM.
For experiment [22] the target is unchanged. Kind of experiment: conventional Simoa sandwich (capture beads + detector m5), 150 pM SβG/5 min; IL-10 at 0.12 fM.
Experiment [23] has the same target. Kind of experiment: conventional Simoa sandwich (capture beads + detector m5), 150 pM SβG/5 min; IL-10 at 0.0048 fM.
Experiment [24] shares this target. Description: conventional Simoa sandwich (capture beads + detector m5), 150 pM SβG/15 min; IL-10 at 0.0048 fM.
Experiment [25] has the same target. Kind of experiment: dSimoa sandwich (capture beads + detector m5), 150 pM streptavidin-DNA/15 min; IL-10 at 0.00096 fM.
Experiment [26] has the same target. Description: dSimoa sandwich (capture beads + detector m5), 150 pM streptavidin-DNA/15 min; IL-10 at 15 fM.
For experiment [27] the target is unchanged. Description: conventional Simoa sandwich (capture beads + detector m5), 150 pM SβG/15 min; IL-10 at 15 fM.
Experiment [28] has the same target. Kind of experiment: conventional Simoa sandwich (capture beads + detector m5), 150 pM SβG/15 min; IL-10 at 3 fM.
Experiment [29] has the same target. Description: conventional Simoa sandwich (capture beads + detector m5), 150 pM SβG/5 min; IL-10 at 75 fM.
The target is the same in experiment [30]. Kind of experiment: conventional Simoa sandwich (capture beads + detector m5), 150 pM SβG/5 min; IL-10 at 0.024 fM.
The target is the same in experiment [31]. Description: conventional Simoa sandwich (capture beads + detector m5), 150 pM SβG/15 min; IL-10 at 0.6 fM.
Experiment [32] shares this target. Description: conventional Simoa sandwich (capture beads + detector m5), 150 pM SβG/5 min; IL-10 at 3 fM.
For experiment [33] the target is unchanged. Kind of experiment: dSimoa sandwich (capture beads + detector m5), 150 pM streptavidin-DNA/15 min; IL-10 at 3 fM.
The target is the same in experiment [34]. Kind of experiment: dSimoa sandwich (capture beads + detector m5), 150 pM streptavidin-DNA/15 min; IL-10 at 0.6 fM.
Experiment [35] has the same target. Description: dSimoa sandwich (capture beads + detector m5), 150 pM streptavidin-DNA/15 min; IL-10 at 0.024 fM.
Experiment [36] has the same target. Description: conventional Simoa sandwich (capture beads + detector m5), 150 pM SβG/15 min; IL-10 at 0.024 fM.
The target is the same in experiment [37]. Kind of experiment: conventional Simoa sandwich (capture beads + detector m5), 150 pM SβG/15 min; IL-10 at 75 fM.
The target is the same in experiment [38]. Kind of experiment: conventional Simoa sandwich (capture beads + detector m5), 150 pM SβG/5 min; IL-10 at 0.6 fM.
Experiment [39] shares this target. Description: dSimoa sandwich (capture beads + detector m5), 150 pM streptavidin-DNA/15 min; IL-10 at 0.12 fM.
The target is the same in experiment [40]. Kind of experiment: conventional Simoa sandwich (capture beads + detector m5), 150 pM SβG/15 min; IL-10 at 0.12 fM.
Experiment [41] has the same target. Kind of experiment: dSimoa sandwich (capture beads + detector m5), 150 pM streptavidin-DNA/15 min; IL-10 at 0.0048 fM.

Chain of UniProt P22301 (P22301 19-178 limits assumed): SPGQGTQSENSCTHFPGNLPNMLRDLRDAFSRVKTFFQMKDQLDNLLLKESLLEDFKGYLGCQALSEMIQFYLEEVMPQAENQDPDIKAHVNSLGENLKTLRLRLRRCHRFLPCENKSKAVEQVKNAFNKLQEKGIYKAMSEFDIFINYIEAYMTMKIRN
Chain of UniProt O15178 (O15178 whole entry): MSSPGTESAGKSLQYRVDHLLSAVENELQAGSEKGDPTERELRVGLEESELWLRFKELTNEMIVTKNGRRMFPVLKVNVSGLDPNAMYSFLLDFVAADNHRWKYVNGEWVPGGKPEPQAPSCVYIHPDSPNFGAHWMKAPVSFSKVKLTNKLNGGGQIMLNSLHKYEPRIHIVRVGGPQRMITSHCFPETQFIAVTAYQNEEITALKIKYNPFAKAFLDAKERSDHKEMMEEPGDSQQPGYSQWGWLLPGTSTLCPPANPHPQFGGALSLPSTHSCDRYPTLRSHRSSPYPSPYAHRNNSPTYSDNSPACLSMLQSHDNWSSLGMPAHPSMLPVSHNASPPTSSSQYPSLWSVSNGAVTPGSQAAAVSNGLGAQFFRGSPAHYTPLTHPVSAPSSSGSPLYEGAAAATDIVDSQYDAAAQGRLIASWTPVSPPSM

With “Brachyury capture antibody (Abcam ab236023)”, the average AEB came out at 14.3 AEB in experiment [1]; 0.0398 AEB in experiment [2]; 0.677 AEB in [3]; 0.0425 AEB in [4]; 0.0395 AEB in experiment [5]; 1.77 AEB in [6]. For the same substance, the average AEB in experiment [8] worked out at 0.0174 AEB; in [11], 0.012 AEB; in experiment [12] it was 0.105 AEB; in experiment [13], 5.97 AEB; in experiment [15], 0.358 AEB; in experiment [17], 0.156 AEB. The average AEB is 0.0108 AEB in experiment [18] and 0.0494 AEB in experiment [20]. The average AMB in experiment [7] was found to be 0.0417 AMB; in [9] it was 0.0147 AMB; in experiment [10] it was 0.156 AMB; in [14], 0.825 AMB; in experiment [16], 0.0127 AMB; in experiment [19] it was 0.0173 AMB.

With “IL-10 capture antibody (Biolegend 506802)”, the average AEB in [21] was 0.306 AEB; in experiment [22] it was 0.0208 AEB; in experiment [23] it was 0.0194 AEB; in experiment [24], 0.0355 AEB; in experiment [27], 0.386 AEB; in [28], 0.107 AEB. For the same substance, the average AEB amounted to 1.41 AEB in experiment [29]; 0.0218 AEB in experiment [30]; 0.05 AEB in [31]; 0.0765 AEB in experiment [32]; 0.0439 AEB in [36]; 2.05 AEB in [37]. In addition, the average AEB amounted to 0.0296 AEB in experiment [38] and 0.0395 AEB in [40]. The average AMB in experiment [25] turned out to be 0.0045 AMB; in [26], 0.561 AMB; in experiment [33], 0.121 AMB; in experiment [34], 0.0281 AMB; in experiment [35], 0.0058 AMB; in [39], 0.0097 AMB. In addition, the average AMB in [41] was determined as 0.0042 AMB.
